For this experiment, the target named is peptide-conjugate (Example 1; lactosyl-Ser-…-Cys coupled to KLH) (influenza virus).

Where “and” joins values, the source holds several entries; their conditions need not be identical. Equal entries are not always repeated.

B1: F211-11H12 (antibody, V domains shown)
VL: DIVMSQSPSSLAVSVGEKVTMSCKSSQSLLNSRNQKNHLAWYQQKPGQSPKLLIYWASTRESGVPDRFTGDGSGTDFTLTISSVKAEDLAVYYCQQYYTYRTFGGGTKLEIK
VH: DVQLQESGPGLVKPSQSLSLTCSVTGYSITSDYYWNWIRQFPGNKLEWMAYIGYDGTKNYNPSLKNRISITRDTSKNQFFLKLNSVTTDDTATYYCTRDRANWDDYFDYWGQGTTLTVSS
With B1, the EC50 (read off the curve) was 0.03 µg/mL and 0.02 µg/mL.

(Values after US20190352376A1.)
